T1: CD276-His (Acro biosystems) (UniProt Q5ZPR3-2 29-245, limits assumed)
T1 construct: Bought detection reagent, detected with anti-His PE
T1 sequence (looked up): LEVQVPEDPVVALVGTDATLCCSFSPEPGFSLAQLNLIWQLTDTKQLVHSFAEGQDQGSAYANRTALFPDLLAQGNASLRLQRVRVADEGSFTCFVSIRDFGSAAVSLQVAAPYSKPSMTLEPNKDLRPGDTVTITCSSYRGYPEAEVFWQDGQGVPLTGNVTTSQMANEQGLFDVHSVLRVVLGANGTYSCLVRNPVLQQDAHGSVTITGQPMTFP

B1: CAR LTG2527 ROR1 IgG4 CD8 BBz (other)
chain: QEQLVESGGRLVTPGGSLTLSCKASGFDFSAYYMSWVRQAPGKGLEWIATIYPSSGKTYYATWVNGRFTISSDNAQNTVDLQMNSLTAADRATYFCARDSYADDGALFNIWGPGTLVTISSGGGGSGGGGSGGGGSELVLTQSPSVSAALGSPAKITCTLSSAHKTDTIDWYQQLQGEAPRYLMQVQSDGSYTKRPGVPDRFSGSSSGADRYLIIPSVQADDEADYYCGADYIGGYVFGGGTQLTVTGAAAESKYGPPCPPCPIYIWAPLAGTCGVLLLSLVITLYCKRGRKKLLYIFKQPFMRPVQTTQEEDGCSCRFPEEEEGGCELRVKFSRSADAPAYQQGQNQLYNELNLGRREEYDVLDKRRGRDPEMGGKPRRKNPQEGLYNELQKDKMAEAYSEIGMKGERRRGKGHDGLYQGLSTATKDTYDALHMQALPPR
notes: CAR on transduced primary human T cells; also called ROR1 R12 -IgG4 hinge-CD8TM-41BB-CD3ζ; R12-ROR1 LTG2527
B2: CAR LTG2529 ROR1scFv9 IgG4 CD8 BBz (other)
chain: QAAQVQLQQSGAEVKKPGSSVKVSCKASGGTFSSYAISWVRQAPGQGLEWMGWINPNSGGTNYAQRFQGRVTMTRDTSISTAYMELSRLRSDDTAVYYCASYNDAFDIWGQGTLVTVSSGGGGSGGGGSGGGGSNFMLTQPHSVSESPGKTVTISCTRSSGSIASNYVQWYQQRPGSAPTIVIYEDDQRPSGVPDRFSGSIDTSSNSASLTISGLQSEDEADYYCQSYEPGNGVFGGGTKVTVLAAAESKYGPPCPPCPIYIWAPLAGTCGVLLLSLVITLYCKRGRKKLLYIFKQPFMRPVQTTQEEDGCSCRFPEEEEGGCELRVKFSRSADAPAYQQGQNQLYNELNLGRREEYDVLDKRRGRDPEMGGKPRRKNPQEGLYNELQKDKMAEAYSEIGMKGERRRGKGHDGLYQGLSTATKDTYDALHMQALPPR
notes: Chimeric antigen receptor on lentivirally transduced primary human T cells; The entry includes the N-terminal leader peptide; also called ROR1 CAR LTG2529; ROR1-LTG2529
B3: CAR D0233 MSLN M1-4S ROR1 scFv9 IgG4 CD8 BBz (other)
chain: EVQLVQSGGGLVQPGGSLRLSCAASGFTFDDYAMHWVRQAPGKGLEWVSGISWNSGSIGYADSVKGRFTISRDNAKNSLYLQMNSLRAEDTALYYCAKDLSSVAGPFNYWGQGTLVTVSSGGGGSGGGGSGGGGSSSELTQDPAVSVALGQTVRITCQGDSLRSYYASWYQQKPGQAPVLVIYGKNNRPSGIPDRFSGSSSGNTASLTITGAQAEDEADYYCNSRDSSGNHLVFGGGTQLTVLGGGGGSGGGGSGGGGSGGGGSGGGGSQAAQVQLQQSGAEVKKPGSSVKVSCKASGGTFSSYAISWVRQAPGQGLEWMGWINPNSGGTNYAQRFQGRVTMTRDTSISTAYMELSRLRSDDTAVYYCASYNDAFDIWGQGTLVTVSSGGGGSGGGGSGGGGSNFMLTQPHSVSESPGKTVTISCTRSSGSIASNYVQWYQQRPGSAPTIVIYEDDQRPSGVPDRFSGSIDTSSNSASLTISGLQSEDEADYYCQSYEPGNGVFGGGTKVTVLAAAESKYGPPCPPCPIYIWAPLAGTCGVLLLSLVITLYCKRGRKKLLYIFKQPFMRPVQTTQEEDGCSCRFPEEEEGGCELRVKFSRSADAPAYQQGQNQLYNELNLGRREEYDVLDKRRGRDPEMGGKPRRKNPQEGLYNELQKDKMAEAYSEIGMKGERRRGKGHDGLYQGLSTATKDTYDALHMQALPPR
notes: Tandem CAR on transduced primary human T cells; also called MSLN-ROR1 scFv9-IgG4 hinge-CD8TM-41BB-CD3ζ; tandem CAR D0233
B4: D0290 ROR1 scFv9-IgG4 hinge-CD8TM-41BB-CD3ζ (other)
chain: QAAQVQLQQSGAEVKKPGSSVKVSCKASGGTFSSYAISWVRQAPGQGLEWMGWINPNSGGTNYAQRFQGRVTMTRDTSISTAYMELSRLRSDDTAVYYCASYNDAFDIWGQGTLVTVSSGGGGSGGGGSGGGGSNFMLTQPHSVSESPGKTVTISCTRSSGSIASNYVQWYQQRPGSAPTIVIYEDDQRPSGVPDRFSGSIDTSSNSASLTISGLQSEDEADYYCQSYEPGNGVFGGGTKVTVL
notes: CAR on transduced primary human T cells; also called CAR D0290; mono ROR1 CAR; not shown: IgG4 hinge, CD8 TM, 4-1BB, CD3ζ
B5: CAR D0351 Farle CD8 BBz (other)
chain: MEVQLVESGGGVVQPGRSLRLSCSASGFTFSGYGLSWVRQAPGKGLEWVAMISSGGSYTYYADSVKGRFAISRDNAKNTLFLQMDSLRPEDTGVYFCARHGDDPAWFAYWGQGTPVTVSSASTKGGGGGSGGGGSGGGGSDIQLTQSPSSLSASVGDRVTITCSVSSSISSNNLHWYQQKPGKAPKPWIYGTSNLASGVPSRFSGSGSGTDYTFTISSLQPEDIATYYCQQWSSYPYMYTFGQGTKVEIKRTAAATTTPAPRPPTPAPTIASQPLSLRPEACRPAAGGAVHTRGLDFACDIYIWAPLAGTCGVLLLSLVITLYCKRGRKKLLYIFKQPFMRPVQTTQEEDGCSCRFPEEEEGGCELRVKFSRSADAPAYQQGQNQLYNELNLGRREEYDVLDKRRGRDPEMGGKPRRKNPQEGLYNELQKDKMAEAYSEIGMKGERRRGKGHDGLYQGLSTATKDTYDALHMQALPPR
notes: FolR1 CAR (Farletuzumab scFv) on transduced primary human T cells, PGK promoter; also called Farle-CD8H&TM-41BB-CD3ζ; mono-FolR1 D0351

Experiments:
[1] = biological target: T2, ROR1.Fc (Sino Biologicals) (UniProt Q01973 30-403); assay: flow cytometry of transduced primary human T cells at day 8; ROR1.Fc and anti-human Fc.AF647 are the listed reagents
T2 construct: not shown: Fc part of the bought reagent, not described
T2 sequence (Q01973 30-403): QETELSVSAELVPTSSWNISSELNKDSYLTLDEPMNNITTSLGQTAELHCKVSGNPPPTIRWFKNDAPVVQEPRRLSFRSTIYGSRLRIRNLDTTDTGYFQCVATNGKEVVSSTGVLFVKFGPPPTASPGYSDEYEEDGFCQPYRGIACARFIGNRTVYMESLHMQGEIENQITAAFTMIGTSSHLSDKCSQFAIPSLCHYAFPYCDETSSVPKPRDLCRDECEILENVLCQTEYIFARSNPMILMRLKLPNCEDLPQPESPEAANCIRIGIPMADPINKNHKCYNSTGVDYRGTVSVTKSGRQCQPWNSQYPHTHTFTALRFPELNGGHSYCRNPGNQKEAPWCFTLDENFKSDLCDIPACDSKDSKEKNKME
Protocol: Flow cytometric analysis was performed as previously described (12, 15, 16). All cell staining reagents for flow cytometry were from Miltenyi Biotec, unless otherwise noted. These include anti-ROR1.AF647, mouse IgG1 control. APC, anti-CD45.PE, anti-CD8. Viogreen, anti-CD3.VioBlue, anti-CD45. VioBright FITC, anti-CD45RA. APC-Vio770, anti-CD62L.PE, anti-PD1.PE-Vio770, Streptavidin. PE (Miltenyi Biotec). Cell viability solution (7-AAD), BD Pharm Lysing buffer were purchased from BD Biosciences. Anti-ROR1.AF647 was from R&D systems. ROR1.Fc was from Sino Biologicals. Anti-human Fc.AF647 was from Jackson ImmunoResearch. Countbright absolute counting beads were from ThermoFisher Scientific. Anti-TGFβRII. Biotin was from Biolegend. Stained cells were analyzed using the MACSQuant Analyzer 10 flow cytometer (Miltenyi Biotec).

[2] = biological target: T1, CD276-His (Acro biosystems); assay: flow cytometry; transduced primary human T cells co-stained with ROR1-Fc and CD276-His, then anti-Fc and anti-His conjugates
From the text: Half million CAR T cells were washed in cold AutoMACS buffer supplemented with 0.5% bovine serum albumin (Miltenyi Biotec, Bergisch Gladbach, Germany) and stained with CAR detection reagents. For ROR1 CAR, cells were stained with ROR1-Fc peptide (R&D System, Minneapolis, MN), followed by anti Fc-AF647 conjugate(Jackson ImmunoResearch, West Grove, PA). For CD276 CAR or CCR, cells were stained with CD276-His (Acro biosystems, Newark, De), followed by anti-His PE (Miltenyi Biotech). The 7-Aminoactinomycin D staining (7-AAD, BD Biosciences, San Jose, CA) was added to exclude dead cells. CD4 antibody labeled with VioBlue was used to separate CD4 and CD8 population. Non-transduced cells (UTD) were used as a negative control. Cells were washed twice, resuspended in 200 μl running buffer, and acquired by flow cytometry. […]
CD276 specific targeting-scFvs were first evaluated in CAR context in vitro, ROR1 CAR was included as control. […] Surface expression of CD276 CARs with ROR1 binder on transduced T cells was measured by flow cytometry using CD276-His, followed by staining with anti-His PE. ROR1 CAR expression was determined as previously described. […] The target specific cytotoxicity of CD276 and/or ROR1 CARs was measured by luciferase based overnight killing assy. […]

[3] = biological target: T3, ROR1-Fc peptide (R&D System) (UniProt Q01973 30-403); assay: flow cytometry; transduced primary human T cells stained with ROR1-Fc, then anti-Fc Alexa Flour 647
T3 construct: Bought detection reagent (R&D Systems), detected with anti Fc-AF647; not shown: Fc part of the bought reagent, not described
T3 sequence (Q01973 30-403): as above
From the text: Half million CAR T cells were washed in cold AutoMACS buffer supplemented with 0.5% bovine serum albumin (Miltenyi Biotec, Bergisch Gladbach, Germany) and stained with CAR detection reagents. For ROR CAR, cells were stained with ROR1-Fc peptide (R&D System, Minneapolis, MN), followed by anti Fc-AF647 conjugate(Jackson ImmunoResearch, West Grove, PA). For MSLN CAR, cells were stained with MSLN-His (R&D System, Minneapolis, MN) […] anti-His-APC (Miltenyi Biotec). The 7-Aminoactinomycin D staining (7-AAD, BD Biosciences, San Jose, CA) was added to exclude dead cells. CD4 antibody labeled with VioBlue fluorochrome or CD8 antibody labeled with VioGreen fluorochrome was used to separate CD4 and CD8 population. Non-transduced cells (UTD) were used as a negative control. Cells were washed twice, resuspended in 200 μl running buffer, and acquired by flow cytometry. Flow cytometric analysis was performed on a MACSQuant® 10 Analyzer (Miltenyi Biotec), and data plots were generated using FlowJo software (Ashland, OR).
ROR1 and MSLN mono CARs and tandem CARs without mIL7 were included as control (FIG. 2A). CAR sequences were further incorporated into a third-generation lentiviral vectors and transduced into human primary T cells at MOI 40, to generate the ROR1 and/or MSLN CAR T cells under the control of the mammalian EF-1α promoter. Un-transduced T cells derived from same donor (UTD) were used as negative control. Surface expression of CARs with ROR1 binder on transduced T cells was measured by flow cytometry using ROR1-Fc, followed by staining with anti-Fc Alexa Flour 647. CARs with MSLN scFv surface expression was detected by MSLN-His followed by anti-His APC. […] Quantified CAR positive percentage and mean fluorescence intensity (MFI) of ROR1 binders (FIG. 2B, 2D) and MSLN binders (FIG. 2C, 2E) were plotted as bar figure.

[4] = biological target: T4, FolR1-Fc peptide (Acro Biosystems) (UniProt P15328 25-233); assay: flow cytometry; transduced primary human T cells stained with FolR1-Fc, then anti-Fc Alexa Flour 647
T4 construct: Bought detection reagent, detected with anti Fc-AF647; not shown: Fc part of the bought reagent, not described
T4 sequence (P15328 25-233): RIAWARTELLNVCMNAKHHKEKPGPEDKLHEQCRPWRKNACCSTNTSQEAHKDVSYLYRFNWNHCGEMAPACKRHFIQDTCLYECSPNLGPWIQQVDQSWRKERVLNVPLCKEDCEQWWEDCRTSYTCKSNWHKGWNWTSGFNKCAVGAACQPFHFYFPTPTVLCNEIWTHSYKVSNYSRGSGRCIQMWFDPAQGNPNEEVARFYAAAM
From the text: 0.32E6 CAR-T cells were washed in cold AutoMACS buffer supplemented with 0.5% bovine serum albumin (Miltenyi Biotec, Bergisch Gladbach, Germany) and stained with CAR detection reagents. For ROR CAR, cells were stained with ROR1-Fc peptide (R&D Systems, Minneapolis, MN) and FolR1 CAR were stained with FolR1-Fc peptide (Acro Biosystems, Newark, DE) followed by anti Fc-AF647 conjugate (Jackson ImmunoResearch, West Grove, PA). The 7-Aminoactinomycin D staining (7-AAD, BD Biosciences, San Jose, CA) was added to exclude dead cells. CD4 antibody labeled with VioBlue fluorochrome was used to separate CD4 and CD8 population. Processed mouse bone marrow and spleen were stained with human CD3 VioBlue and human CD45 FITC (Miltenyi Biotec) to determine the presence of CAR-T. To assess for memory phenotype, cells were stained with CD62L PE and CD45RA APC-Vio700 (Miltenyi Biotec). Non-transduced cells (UTD) were used as a negative control. Cells were washed twice, resuspended in 200 μl running buffer, and acquired by flow cytometry. […]
To test CAR-T functionality in vitro, ROR1 or FolR1 mono CARs with MMP-2, MMP-9, HPSE or PH-20 as booster elements were characterized. […] Surface expression of CARs with ROR1 or FolR1 binder on transduced T cells was measured by flow cytometry using ROR1-Fc or FolR1-Fc respectively, followed by staining with anti-Fc Alexa Flour 647.

Binder | binding result [1] | binding result [2] | binding result [3] | binding result [4]
B1 | binds | – | – | –
B2 | binds | no binding | binds | –
B3 | – | – | binds | –
B4 | – | – | binds | –
B5 | – | – | – | binds

— patent US20240091360A1 (LENTIGEN TECHNOLOGY, published 2024)
